Consider three substances from publication PMC8927147, “Global profiling of regulatory elements in the histone benzoylation pathway” (Nature Communications, 2022).

The target in test [1] is Sth1BD (S. cerevisiae) (UniProt P32597). In words: ITC; MicroCal ITC200, 20 °C, 25 mM Tris-HCl pH 8.0, 150 mM NaCl; peptides at 2.0 mM in the syringe titrated into reader domain at 0.1-0.2 mM in the cell; one-binding-site model. In general terms: ITC needs no label: the signal is the heat of the interaction.
Chain of Sth1BD (S. cerevisiae) (P32597 1248-1359): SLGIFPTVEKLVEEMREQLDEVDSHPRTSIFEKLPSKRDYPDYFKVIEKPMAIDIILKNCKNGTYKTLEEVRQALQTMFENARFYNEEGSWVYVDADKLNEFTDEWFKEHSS
Test [2] has as its target H3K14ac peptide (Saccharomyces cerevisiae) (UniProt P61830). Particulars: cited from earlier work.
For test [3], the target named is H3K9cr peptide (Saccharomyces cerevisiae) (UniProt P61830). Conditions: cited from earlier work.
The target of test [4] is H3K9ac peptide (Saccharomyces cerevisiae) (UniProt P61830). Conditions: cited from earlier work.

Chain of Taf14 YEATS (P35189 1-137): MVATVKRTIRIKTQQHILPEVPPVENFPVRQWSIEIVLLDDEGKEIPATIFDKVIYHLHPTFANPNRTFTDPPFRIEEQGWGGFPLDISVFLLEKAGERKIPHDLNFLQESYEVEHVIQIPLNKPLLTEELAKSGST
Chain of Sth1 Bromodomain (P32597 1254-1359): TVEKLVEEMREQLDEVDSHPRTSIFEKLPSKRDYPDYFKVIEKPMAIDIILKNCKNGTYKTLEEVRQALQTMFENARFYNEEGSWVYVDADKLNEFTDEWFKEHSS

A word on the Kd: it is a measure of binding affinity in units of concentration. In test [1], H3K14bz peptide registered a Kd of 89 µM.
With Sth1 Bromodomain (from UniProt P32597), in test [2], the equilibrium dissociation constant (Kd) is 16 µM.
Consider Taf14 YEATS (from UniProt P35189), for which the values for the dissociation constant (Kd) in test [3] and in test [4] were 75 µM and 334 µM, respectively.
